Test results reported in publication PMC11086627, “Substrate displacement of CK1 C-termini regulates kinase specificity” (Science Advances, 2024).
Where a chain is given by its changes, count along the chain named. Values belong to the molecule of their own block, whether it stands above or below them. Square brackets hold non-standard residues; d marks the D form. Ends that are not written are not given here. * marks the point of attachment. Biotin = O=C1N[C@H]2[C@H](CS[C@H]2CCCCC(=O)*)N1; pT = C[C@@H](OP(=O)(O)O)[C@H](N)C(=O)O; pS = N[C@@H](COP(=O)(O)O)C(=O)O

Experiments:
[1] = target: Hhp1 Cter-6P peptide (amino acids 297 to 365 of Hhp1, phosphorylated at six sites, biotin-conjugated) (S. pombe) (UniProt P40235); experiment: pull-down; competitive equilibrium binding assay: as the equilibrium binding assay on peptide beads, with 25 μM substrate (casein or Rec11) added along with the kinase; fit constrained to Bmax = 1 for the apparent Kd; Ki from Kd(app)=Kd(1+[I]/Ki)
[2] = target: Hhp1 Cter-6P peptide (amino acids 297 to 365 of Hhp1, phosphorylated at six sites, biotin-conjugated) (S. pombe) (UniProt P40235); experiment: pull-down; equilibrium binding assay: peptide-conjugated streptavidin beads at 0 to 847 μM peptide incubated with 100 ng of MBP-Hhp1ΔC in binding buffer [50 mM tris (pH 7.0), 25 mM NaCl, 1 mM EDTA, 1 mM DTT], 1 hour at 4°C; unbound kinase in the supernatant by Western blot and densitometry; one-site specific binding fit
[3] = target: MBP-Hhp1ΔC (Hhp1 amino acids 1 to 296) (S. pombe) (UniProt P40235); experiment: pull-down; competitive equilibrium binding assay: as the equilibrium binding assay on peptide beads, with 25 μM substrate (casein or Rec11) added along with the kinase; fit constrained to Bmax = 1 for the apparent Kd; Ki from Kd(app)=Kd(1+[I]/Ki)
[4] = target: CK1ε CK1εΔC, 1-294 (UniProt P49674); experiment: biotin-peptide streptavidin bead pull-down; settings: reference: unphosphorylated EC peptide; sites S389,S390,S391,S405,T407,S408
[5] = target: Hhp1 C-terminus (Cter), 297-365 (UniProt P40235); experiment: equilibrium bead binding, supernatant depletion; settings: reference: wild-type Hhp1ΔC; sites T221,T222
[6] = target: Hhp1 Hhp1ΔC, 1-296 (UniProt P40235); experiment: biotin-peptide streptavidin bead pull-down; settings: reference: unphosphorylated Cter peptide; sites S326,S327,T345,T346,S354,T356
[7] = target: T1, MBP-CK1εΔC-T220N (human, UniProt P49674 1-294, T220N); experiment: pull-down; biotin peptide on streptavidin sepharose (500 μM peptide) incubated with 2 μg of MBP-kinaseΔC in binding buffer [50 mM tris (pH 7.0), 25 mM NaCl, 1 mM EDTA, 1 mM DTT], 1 hour at 4°C; beads blocked in 5% BSA; bound protein detected by Western blot with anti-MBP; settings: both partners purified
T1 construct: human CK1ε, amino acids 1-294, kinase domain autophosphorylation site T220 mutated; source: E. coli Rosetta2(DE3)pLysS, purified (amylose beads, eluted with maltose)
T1 sequence (looked up): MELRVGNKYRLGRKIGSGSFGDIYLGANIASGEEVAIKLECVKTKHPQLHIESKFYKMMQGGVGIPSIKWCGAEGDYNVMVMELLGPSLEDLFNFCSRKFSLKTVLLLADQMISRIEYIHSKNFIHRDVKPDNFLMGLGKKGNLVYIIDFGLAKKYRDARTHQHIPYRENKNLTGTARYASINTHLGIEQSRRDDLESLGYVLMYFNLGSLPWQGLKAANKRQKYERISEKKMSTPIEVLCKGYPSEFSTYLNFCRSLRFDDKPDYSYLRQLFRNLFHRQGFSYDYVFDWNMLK

[8] = target: MBP-CK1εΔC (human CK1ε amino acids 1-294) (human) (UniProt P49674); experiment: ITC; Nano-ITC, 25°C, 10 mM NaPO4 (pH 7.5), 150 mM NaCl, 0.25 mM TCEP; cell: 100 μM MBP-Hhp1ΔC or MBP-CK1εΔC; syringe: 2 mM peptide; single-site binding model; duplicate
[9] = target: T2, MBP-Hhp1ΔC-VV (S. pombe, UniProt P40235 1-296)
T2 chain: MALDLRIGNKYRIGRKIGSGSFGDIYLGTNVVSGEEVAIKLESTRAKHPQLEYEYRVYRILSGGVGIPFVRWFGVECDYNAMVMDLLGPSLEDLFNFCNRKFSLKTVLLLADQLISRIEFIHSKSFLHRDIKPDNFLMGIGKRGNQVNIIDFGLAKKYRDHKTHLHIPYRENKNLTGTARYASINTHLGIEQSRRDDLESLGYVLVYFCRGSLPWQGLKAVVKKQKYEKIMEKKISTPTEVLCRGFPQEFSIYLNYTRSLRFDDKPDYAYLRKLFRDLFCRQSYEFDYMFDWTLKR

[10] = target: T3, MBP-Hhp1ΔC (Hhp1 amino acids 1 to 296) (S. pombe, UniProt P40235 1-296); experiment: pull-down; competitive equilibrium binding assay: as the equilibrium binding assay on peptide beads, with 25 μM substrate (casein or Rec11) added along with the kinase; fit constrained to Bmax = 1 for the apparent Kd; Ki from Kd(app)=Kd(1+[I]/Ki); settings: both partners purified
T3 construct: Hhp1, CK1 enzyme of Schizosaccharomyces pombe, C-terminally truncated, amino acids 1-296; cDNA cloned into pMAL-C2; also called Hhp1-delC; Hhp1 kinase domain; source: E. coli Rosetta2(DE3)pLysS, purified (amylose beads, eluted with maltose)
T3 sequence (looked up): T2 chain with V221T, V222T

[11] = target: T4, MBP-Hhp1ΔC (Hhp1 amino acids 1 to 296) (S. pombe, UniProt P40235 1-296); experiment: ITC; second replicate
T4 chain: T2 chain with V221T, V222T

[12] = target: T4, MBP-Hhp1ΔC (Hhp1 amino acids 1 to 296); experiment: apparent, in the presence of 25 uM Rec11
[13] = target: MBP-Hhp1ΔC (Hhp1 amino acids 1 to 296) (S. pombe) (UniProt P40235); experiment: ITC; Nano-ITC, 25°C, 10 mM NaPO4 (pH 7.5), 150 mM NaCl, 0.25 mM TCEP; cell: 100 μM MBP-Hhp1ΔC or MBP-CK1εΔC; syringe: 2 mM peptide; single-site binding model; duplicate

Chain of MBP-CK1εΔC (human CK1ε amino acids 1-294) (human) (P49674 1-294, stated change not applied): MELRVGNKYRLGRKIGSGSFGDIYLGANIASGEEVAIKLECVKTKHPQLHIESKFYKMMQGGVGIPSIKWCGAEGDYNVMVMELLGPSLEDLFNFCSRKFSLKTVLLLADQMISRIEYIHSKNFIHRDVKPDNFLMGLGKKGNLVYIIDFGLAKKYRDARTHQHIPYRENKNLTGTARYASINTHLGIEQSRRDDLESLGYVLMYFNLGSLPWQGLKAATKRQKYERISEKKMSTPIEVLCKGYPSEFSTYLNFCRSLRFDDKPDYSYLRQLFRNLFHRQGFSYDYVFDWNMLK
Chain of CK1ε CK1εΔC, 1-294 (P49674 383-416, stated change not applied): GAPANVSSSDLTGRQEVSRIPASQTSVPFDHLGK

Molecule: dephosphorylated alpha casein (natural protein)
Ki [3]: 14 µM

Molecule: CK1ε extreme C-terminus (EC), 383-416 (from UniProt P49674) EC-6P peptide
binding against the reference [4]: gained

Molecule: Hhp1 C-terminus (Cter), 297-365 (from UniProt P40235) Cter-6P peptide
binding against the reference [6]: gained

B2: Hhp1 Cter peptide (amino acids 297 to 365 of Hhp1, unphosphorylated, biotin-conjugated) (peptide)
peptide: Biotin-KTQQDQQHQQQLQQQLSATPQAINPPPERSSFRNYQKQNFDEKGGDINTTVPVINDPSATGAQYINRPN
Kd [9]: 269 µM

B3: GST-Rec11-N3 (N terminus of Rec11, amino acids 1-33) (domain or fragment, UniProt Q92380 1-33, looked up)
chain: MRFEFESDASSHLNEVLTELESVELENVEYEGP
notes: Rec11, physiological Hhp1 substrate involved in meiosis, N terminus, amino acids 1-33; source: expressed and purified as previously described (16)
Ki [10]: 32 µM

The remaining lines, values ahead:

Kd(app) in the presence of 25 μM casein [1]: 658 µM
Kd [2]: 240 µM
Molecule: MBP-Hhp1ΔC (Hhp1 amino acids 1 to 296) (from UniProt P40235 1-296) (domain or fragment)

binding against the reference [5]: gained
Molecule: Hhp1 Hhp1ΔC, 1-296 (from UniProt P40235) Hhp1ΔC-VV

binding result [7]: binds
Kd [8]: 343 µM
B1: CK1ε EC-6P peptide (amino acids 383 to 416 of CK1ε, phosphorylated at six sites, biotin-conjugated) (peptide, UniProt P49674 383-416, looked up)
peptide: Biotin-GAPANV[pS][pS][pS]DLTGRQEVSRIPA[pS]Q[pT][pS]VPFDHLGK
notes: human CK1ε, final 34 amino acids, 383-416; source: synthetic peptide (LifeTein LLC)

Kd [11]: 283 µM
Kd [12]: 425 µM
Kd [13]: 335 µM
B4: Hhp1 Cter-6P peptide (amino acids 297 to 365 of Hhp1, phosphorylated at six sites, biotin-conjugated) (peptide)
peptide: Biotin-KTQQDQQHQQQLQQQLSATPQAINPPPER[pS][pS]FRNYQKQNFDEKGGDIN[pT][pT]VPVINDP[pS]A[pT]GAQYINRPN
